The values below come from US20240294646A1.

Assay [1] addresses FcγRIIb (UniProt P31994). Description: SPR; ratio of IIb-Fold to IIaR-Fold (FcγRIIb against FcγRIIaR).
Target sequence in this assay (P31994 43-217): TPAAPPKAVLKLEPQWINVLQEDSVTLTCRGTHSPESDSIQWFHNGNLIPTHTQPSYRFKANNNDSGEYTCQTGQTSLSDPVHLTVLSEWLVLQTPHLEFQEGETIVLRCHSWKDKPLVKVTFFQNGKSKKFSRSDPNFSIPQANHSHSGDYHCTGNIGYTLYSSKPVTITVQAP
The target in assay [2] is C1q (human) (UniProt P02745). Kind of assay: ELISA; antibody coated on the plate, human C1q added; signal as % of wild-type.
Assay [3] addresses FcγRIIaR (UniProt P12318). Description: SPR; antibody captured on immobilised HER2, soluble FcγR as analyte; fold over wild-type.
Target sequence in this assay (P12318 34-217): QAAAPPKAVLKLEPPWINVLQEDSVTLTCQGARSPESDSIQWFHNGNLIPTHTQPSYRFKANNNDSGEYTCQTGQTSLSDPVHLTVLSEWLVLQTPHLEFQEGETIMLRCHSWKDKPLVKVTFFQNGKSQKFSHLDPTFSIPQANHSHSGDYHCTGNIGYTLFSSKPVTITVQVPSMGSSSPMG
Assay [4] concerns the target FcγRIIb (UniProt P31994). The description is as above.
Target sequence in this assay (P31994 43-217): as the sequence (P31994 43-217) above
Assay [5] has as its target FcγRIIaR (UniProt P12318). Kind of assay: SPR imaging (IBIS MX96), antibody spotted on chip, soluble receptor as analyte, kinetic fit, 25 C, pH 7.4.
Target sequence in this assay (P12318 34-217 H167R limits assumed): as the sequence (P12318 34-217) above, with H134R counted along it
The target in assay [6] is FcγRIIb (UniProt P31994). The assay is described as above.
Target sequence in this assay (P31994 43-217): as the sequence (P31994 43-217) above
The target in assay [7] is Soluble FcγRIIb extracellular domain with C-terminal 10xHis tag (UniProt P31994). Description: SPR (Biacore 4000); variant captured on HER2, receptor in solution.
Soluble FcγRIIb extracellular domain with C-terminal 10xHis tag, sequence (P31994 other isoform, or with tags, fused parts or gaps): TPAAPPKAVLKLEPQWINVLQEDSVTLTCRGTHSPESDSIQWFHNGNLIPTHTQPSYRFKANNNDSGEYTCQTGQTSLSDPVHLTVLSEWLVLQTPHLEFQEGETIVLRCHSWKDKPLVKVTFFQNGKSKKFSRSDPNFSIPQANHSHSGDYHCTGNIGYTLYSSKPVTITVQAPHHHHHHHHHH
For assay [8], the target named is Soluble FcγRIIaR extracellular domain with C-terminal 10xHis tag (UniProt P12318). The description is as above.
Soluble FcγRIIaR extracellular domain with C-terminal 10xHis tag, sequence (P12318 other isoform, or with tags, fused parts or gaps): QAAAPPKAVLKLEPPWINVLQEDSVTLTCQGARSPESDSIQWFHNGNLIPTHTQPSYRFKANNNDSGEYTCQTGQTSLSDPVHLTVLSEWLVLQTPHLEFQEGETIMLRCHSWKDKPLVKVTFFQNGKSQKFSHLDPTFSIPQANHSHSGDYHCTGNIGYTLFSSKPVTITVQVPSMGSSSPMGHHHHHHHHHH
The target in assay [9] is FcγRIIb soluble extracellular domain with C-terminal 10xHis tag (UniProt P31994). Description: SPR, OAA captured on HER2, receptor in solution; KD(control v27294)/KD(variant).
FcγRIIb soluble extracellular domain with C-terminal 10xHis tag, sequence (P31994 other isoform, or with tags, fused parts or gaps limits assumed): as the sequence (P31994 other isoform, or with tags, fused parts or gaps) above
Assay [10] has the same target. Kind of assay: SPR; IIb-Fold/IIaR-Fold (FcγRIIb against FcγRIIaR).
For assay [11] the target is unchanged. Description: SPR, OAA captured on HER2, receptor in solution; KD(WT v16463)/KD(variant).
In assay [12] the target is FcγRIIaR soluble extracellular domain with C-terminal 10xHis tag (UniProt P12318). The description is as above.
FcγRIIaR soluble extracellular domain with C-terminal 10xHis tag, sequence (P12318 other isoform, or with tags, fused parts or gaps): as the sequence (P12318 other isoform, or with tags, fused parts or gaps) above
Assay [13] addresses FcγRIIb soluble extracellular domain with C-terminal 10xHis tag (UniProt P31994). Kind of assay: SPR; IIb selectivity of variant / that of control v27294.
Assay [14] has as its target FcγRIIaR (UniProt P12318). Kind of assay: SPR (Protocol 1), one-armed antibody captured on HER2, receptor as analyte; fold over wild-type.
Target sequence in this assay (P12318 34-217): as the sequence (P12318 34-217) above
The target of assay [15] is FcγRIIb (UniProt P31994). The assay is described as above.
Target sequence in this assay (P31994 43-217 limits assumed): as the sequence (P31994 43-217) above
In assay [16] the target is FcγRIIb (UniProt P31994). Description: SPR (Protocol 1); FcγRIIb ratio over FcγRIIaR ratio.
Target sequence in this assay (P31994 43-217 limits assumed): as the sequence (P31994 43-217) above
Assay [17] addresses FcγRIIaR (UniProt P12318). Description: SPR (Protocol 1), one-armed antibody captured on HER2, receptor as analyte; ratio to wild-type.
Target sequence in this assay (P12318 34-217): as the sequence (P12318 34-217) above
In assay [18] the target is FcγRIIb (UniProt P31994). Described as above.
Target sequence in this assay (P31994 43-217 limits assumed): as the sequence (P31994 43-217) above
For assay [19], the target named is FcγRIIb (UniProt P31994). Description: SPR (Protocol 1); IIb-Fold over IIaR-Fold.
Target sequence in this assay (P31994 43-217 limits assumed): as the sequence (P31994 43-217) above
The target of assay [20] is Soluble FcγRIIb extracellular domain with C-terminal 10xHis tag (UniProt P31994). Kind of assay: SPR, antibody captured on immobilised HER2, soluble receptor as analyte.
The target of assay [21] is Soluble FcγRIIaR extracellular domain with C-terminal 10xHis tag (UniProt P12318). The description is as above.
The target of assay [22] is C1q (human) (UniProt P02745). Description: cell-based or functional assay.

C1q (human), sequence (P02745 23-245 limits assumed, chain 1 of 3): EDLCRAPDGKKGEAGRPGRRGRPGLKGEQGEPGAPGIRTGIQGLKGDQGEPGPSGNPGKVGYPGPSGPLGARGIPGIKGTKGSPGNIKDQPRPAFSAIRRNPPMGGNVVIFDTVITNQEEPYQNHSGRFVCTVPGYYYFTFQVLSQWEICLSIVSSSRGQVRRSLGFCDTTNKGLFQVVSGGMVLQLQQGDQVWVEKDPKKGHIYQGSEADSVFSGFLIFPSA
C1q (human), sequence (P02746 28-253 limits assumed, chain 2 of 3, further chain): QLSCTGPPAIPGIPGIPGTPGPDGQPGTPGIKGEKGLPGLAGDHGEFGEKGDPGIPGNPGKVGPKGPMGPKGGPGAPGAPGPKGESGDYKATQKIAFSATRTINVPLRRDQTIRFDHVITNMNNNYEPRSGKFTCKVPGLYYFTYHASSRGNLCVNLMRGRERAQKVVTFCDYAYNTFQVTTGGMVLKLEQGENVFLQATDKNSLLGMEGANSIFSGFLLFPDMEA
C1q (human), sequence (P02747 29-245 limits assumed, chain 3 of 3, further chain): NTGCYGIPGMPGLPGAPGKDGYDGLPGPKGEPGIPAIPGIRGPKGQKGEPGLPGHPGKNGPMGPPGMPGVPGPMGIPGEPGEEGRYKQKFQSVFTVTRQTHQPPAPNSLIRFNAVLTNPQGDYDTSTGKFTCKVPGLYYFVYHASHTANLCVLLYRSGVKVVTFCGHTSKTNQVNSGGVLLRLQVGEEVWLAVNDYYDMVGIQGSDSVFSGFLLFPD

Regarding “Variant 22128 (trastuzumab FSA; A: L234F_G236N_H268Q_K274Q_A327G_A330K_P331S; B: L234F_G236D_S239D_V266L_S267A_H268D_K274Q_A327G_A330S_P331S) (antibody)”, the IIb Selectivity (IIb-Fold/IIaR-Fold) in the assay with FcγRIIb [1] was found to be 9 fold. In the assay with C1q (human) [2], the C1q Binding (% WT) was determined as 3 % WT. In the assay with FcγRIIaR [3], this substance registered an IIaR-fold (fold change in affinity over wild-type) of 4 fold. In the assay with FcγRIIb [4], this substance gave an IIb-fold (fold change in affinity over wild-type) of 33 fold.
Substance “v12 (IIb-specific comparator, symmetrical E233D_G237D_P238D_H268D_P271G_A330R), anti-CD40 (Chi Lob 7/4) full-size antibody” gave a Kd with FcγRIIaR [5] of 390 nM.
In the case of “Variant 21653 (WT), anti-CD19 (4G7) full-size antibody”, the Kd is 720 nM with FcγRIIaR [5] and 2200 nM in the assay with FcγRIIb [6].
With “v26129 (A_N236G_strat1), one-armed trastuzumab antibody”, the Kd stood at 4.6 nM in [7] and 8.9 nM in assay [8].
“Variant 26931 (A_L234F_G236N_H268Q_A327G_A330K_P331S / B_G236D_G237L_S239D_V266L_S267A_H268D) (antibody)” displayed an IIb-Fold wrt Control in [9] of 3.2 fold. The substance also came in with an IIb Selectivity in [10] of 20.9 fold. In [11], the IIb-Fold was 296 fold. Moreover, in assay [12], the IIaR-fold amounted to 14.2 fold. In addition, in [13], the IIb Selectivity Improvement wrt Control turned out to be 1.6 fold.
As to “Variant 31190 (trastuzumab FSA; A: L234F_L235D_G236N_H268Q_A327G_A330K_P331S; B: G236D_G237L_S239D_V266L_S267A_H268D) (antibody)”, in the assay with FcγRIIb [1], the IIb Selectivity (IIb-Fold/IIaR-Fold) turned out to be 26 fold. In addition, the C1q Binding (% WT) with C1q (human) [2] is 2 % WT. Moreover, in the assay with FcγRIIaR [3], the IIaR-fold (fold change in affinity over wild-type) was found to be 7 fold. Besides, the IIb-fold (fold change in affinity over wild-type) with FcγRIIb [4] was found to be 187 fold.
For the substance “v26131 (A_N236V_strat1), one-armed trastuzumab antibody”, the results for the Kd in [7] and in [8] were 3 nM and 8 nM, respectively.
Turning to “Variant 31256 (trastuzumab FSA; A: L234F_G236N_H268Q_A327G_P329I_A330K_P331S; B: G236D_G237D_S239D_V266L_S267A_H268D) (antibody)”, in the assay with FcγRIIb [1], the IIb Selectivity (IIb-Fold/IIaR-Fold) came to 34 fold. In addition, the C1q Binding (% WT) in the assay with C1q (human) [2] was 3 % WT. For the same substance, the IIaR-fold (fold change in affinity over wild-type) with FcγRIIaR [3] was determined as 4 fold. The substance also registered an IIb-fold (fold change in affinity over wild-type) in the assay with FcγRIIb [4] of 121 fold.
As to “variant 16585, one-armed trastuzumab antibody (Scaffold 2), L234D in both chains”, in the assay with FcγRIIaR [14], the IIaR-Fold (fold affinity over wild-type) is 0.17 fold. Moreover, the IIb-Fold (fold affinity over wild-type) with FcγRIIb [15] turned out to be 0.47 fold. The Selectivity IIb/IIaR in the assay with FcγRIIb [16] was found to be 2.7. The Ka,mut/Ka,WT worked out at 0.17 with FcγRIIaR [17] and 0.47 with FcγRIIb [18]. This substance registered an IIb/IIaR Selectivity with FcγRIIb [19] of 2.7.
As for “variant 16490, one-armed trastuzumab antibody (Scaffold 2), G236D in both chains”, the IIaR-Fold (fold affinity over wild-type) with FcγRIIaR [14] was 0.81 fold. In the assay with FcγRIIb [15], the IIb-Fold (fold affinity over wild-type) was determined as 2.22 fold. In addition, the Selectivity IIb/IIaR in the assay with FcγRIIb [16] turned out to be 2.7. Besides, the Ka,mut/Ka,WT in the assay with FcγRIIaR [17] was 0.81; with FcγRIIb [18], 2.22. Also, in the assay with FcγRIIb [19], the IIb/IIaR Selectivity turned out to be 2.75.
For “variant 16533, one-armed trastuzumab antibody (Scaffold 2), S267I in both chains”, in the assay with FcγRIIaR [14], the IIaR-Fold (fold affinity over wild-type) was 0.98 fold. Besides, the IIb-Fold (fold affinity over wild-type) with FcγRIIb [15] turned out to be 2.69 fold. The Selectivity IIb/IIaR with FcγRIIb [16] came out at 2.8. The Ka,mut/Ka,WT in the assay with FcγRIIaR [17] came to 0.98; with FcγRIIb [18], 2.69. The substance further registered an IIb/IIaR Selectivity with FcγRIIb [19] of 2.75.
“Variant 27294, Launching Module 2 (A_L234F_G236N_H268Q_A327G_A330K_P331S / B_G236D_S239D_V266L_S267A_H268D), one-armed trastuzumab antibody”: the figures for the Kd in assay [20] and in assay [21] were 16 nM and 44 nM, respectively.
“Variant 26847 (A_L234F_G236N_H268Q_A327G_A330T_P331S / B_G236D_S239D_V266L_S267A_H268D) (antibody)” returned an IIb-Fold wrt Control in [9] of 0.6 fold. Besides, the IIb Selectivity in [10] came out at 22.6 fold. For the same substance, the IIb-Fold in [11] was found to be 53.3 fold. In addition, the IIaR-fold in [12] worked out at 2.4 fold. This substance also showed an IIb Selectivity Improvement wrt Control in assay [13] of 1.7 fold.
As for “Variant 26940 (A_L234F_G236N_H268Q_A327G_A330K_P331S / B_G236D_G237D_S239D_V266L_S267A_H268D) (antibody)”, the IIb-Fold wrt Control in assay [9] worked out at 3.3 fold. The substance also displayed an IIb Selectivity in assay [10] of 23.3 fold. In assay [11], this substance yielded an IIb-Fold of 304 fold. Besides, the IIaR-fold in assay [12] was 13.1 fold. In assay [13], this substance came in with an IIb Selectivity Improvement wrt Control of 1.7 fold.
On to “v26128 (A_L235P_strat1), one-armed trastuzumab antibody”, for which the figures for the dissociation constant Kd in [7] and in assay [8] were 6.5 nM and 18 nM, respectively.
Take “Variant 26939 (A_L234F_G236N_H268Q_A327G_A330K_P331S / B_G236D_G237N_S239D_V266L_S267A_H268D) (antibody)”: the IIb-Fold wrt Control in assay [9] turned out to be 5.8 fold. This substance registered an IIb Selectivity in assay [10] of 19.7 fold. In [11], this substance displayed an IIb-Fold of 542 fold. The same substance displayed an IIaR-fold in [12] of 27.5 fold. This substance had an IIb Selectivity Improvement wrt Control in [13] of 1.5 fold.
Consider “one-armed trastuzumab antibody (Scaffold 2), chain A L235D, chain B H268Q_K274Q”, for which the Selectivity IIb/IIaR with FcγRIIb [16] worked out at 2.2. Also, the values for the Ka,mut/Ka,WT with FcγRIIaR [17] and with FcγRIIb [18] were 1.03 and 2.24, respectively.
As for “Variant 22127 (trastuzumab FSA; A: L234D_G236N_S267A; B: G236D_S239D_V266L_S267A_H268D) (antibody)”, the IIb Selectivity (IIb-Fold/IIaR-Fold) in the assay with FcγRIIb [1] amounted to 12 fold. The substance also yielded a C1q Binding (% WT) with C1q (human) [2] of 215 % WT. This substance came in with an IIaR-fold (fold change in affinity over wild-type) with FcγRIIaR [3] of 4 fold. Besides, the IIb-fold (fold change in affinity over wild-type) in the assay with FcγRIIb [4] was 49 fold.
In the case of “variant 16578, one-armed trastuzumab antibody (Scaffold 2), A327G_A330S_P331S_L234F_H268Q_K274Q in both chains”, the IIaR-Fold (fold affinity over wild-type) in the assay with FcγRIIaR [14] came out at 0.47 fold. Moreover, in the assay with FcγRIIb [15], the IIb-Fold (fold affinity over wild-type) was 2.03 fold. In addition, in the assay with FcγRIIb [16], the Selectivity IIb/IIaR came out at 4.4. Moreover, the Ka,mut/Ka,WT is 0.47 with FcγRIIaR [17] and 2.03 in the assay with FcγRIIb [18]. In the assay with FcγRIIb [19], the IIb/IIaR Selectivity came out at 4.35.
For “v26130 (A_N236A_strat1), one-armed trastuzumab antibody”, the Kd came out at 4 nM in assay [7] and 12 nM in [8].
“Variant 26663 (A_L234F_G236N_S267A_H268Q_A327G_A330K_P331S / B_G236D_S239D_V266L_S267A_H268D) (antibody)” gave an IIb-Fold wrt Control in [9] of 0.7 fold. The same substance came in with an IIb Selectivity in assay [10] of 23.6 fold. The IIb-Fold in assay [11] is 62.1 fold. In [12], this substance displayed an IIaR-fold of 2.6 fold. In assay [13], the IIb Selectivity Improvement wrt Control was 1.8 fold.
For the substance “variant 16572, one-armed trastuzumab antibody (Scaffold 2), L234F in both chains”, the IIaR-Fold (fold affinity over wild-type) with FcγRIIaR [14] is 0.21 fold. Besides, in the assay with FcγRIIb [15], the IIb-Fold (fold affinity over wild-type) is 0.52 fold. Further, the Selectivity IIb/IIaR with FcγRIIb [16] amounted to 2.5. Besides, the Ka,mut/Ka,WT with FcγRIIaR [17] was determined as 0.21; in the assay with FcγRIIb [18], 0.52. The substance also gave an IIb/IIaR Selectivity in the assay with FcγRIIb [19] of 2.48.
“v26132 (A_N236L_strat1), one-armed trastuzumab antibody”: the values for the Kd in assay [7] and in assay [8] were 2.7 nM and 7.3 nM, respectively.
In turn, “Variant 26593 (A_L234F_L235D_G236N_H268Q_A327G_A330K_P331S / B_G236D_S239D_V266L_S267A_H268D) (antibody)” came in with an IIb-Fold wrt Control in [9] of 0.7 fold. Also, in assay [10], the IIb Selectivity was determined as 26.3 fold. In addition, the IIb-Fold in assay [11] worked out at 65.2 fold. The substance also displayed an IIaR-fold in [12] of 2.5 fold.
Substance “anti-CD40 full-size antibody (Chi Lob 7/4 Fab) with control Fc v12 (symmetrical E233D_G237D_P238D_H268D_P271G_A330R)” gave a CDC assay on Ramos cells: Lysis (%) Mean, at highest test antibody concentration in the assay with C1q (human) [22] of 7.28%.
